The data set concerns the molecule itself. As to the kind of experiment: fluorescence correlation spectroscopy (FCS), photon-count rate per molecule (CPM); point FCS in the cytoplasm of living syncytial embryos at the beginning of nuclear cycle 12, 25.0-26.0°C; CPM compared with monomeric (mNG) and dimeric (dNG) NeonGreen controls.

B1: Ana2-mNG (natural protein, Drosophila melanogaster, UniProt Q9XZ31 1-420, looked up)
chain: MFVPETEDMLPRLAPRPSAAVPMGHTNEIIGPTVPEVSILFGQPPQDPQMQPQQPNHAHQESSPRAAPTFASWKKQMLPRVNFSPILATELGPRTAPSSNSPCSSKEYQVMPRDRNYASDAQQTTNHMNCNAGGYNAEPKQQAYQSRRLSSSSNADVLTICAGTQTDPFNPSPPRKSLPQVVYSDIDVSNLANKSDLAALVSLVESVRHEQQQLRNLCEMILEQQQRAKPEAISKASSTTGTQCDILTTNQAGRRLSPIMQDYIAEEEEPLPPPQARVIPQFPSPRPHPPIAQSTGYRANTPQAKRIPQLAKPNTEKSMVMNELALKYLRQPVDELMKDMRLGASPKSPNPEPLRPIDNIGHAQSPNDISNASYKYLKKYRLLPEEQLEPVCPQSPMAATAPSPHIQLDLENIRNQPKLL
notes: Ana2 (fly homologue of STIL), Drosophila melanogaster; mNG with a short linker knocked in at the C-terminus of the endogenous locus; The protein appeared overexpressed about 2-4X against the untagged one; also called Ana2/STIL; WT Ana2-mNG; source: CRISPR/Cas9 knock-in at the endogenous locus, in the cytoplasm of living Drosophila syncytial embryos; not shown: mNeonGreen (mNG), C-terminal, kept
With B1, the “stoichiometry N” value is ~2.

B2: mNG-Ana2 (natural protein, Drosophila melanogaster, UniProt Q9XZ31 1-420, looked up)
chain: B1 chain
notes: Ana2 (fly homologue of STIL), Drosophila melanogaster; mNG with a short linker knocked in at the N-terminus of the endogenous locus; also called Ana2/STIL; source: CRISPR/Cas9 knock-in at the endogenous locus, in the cytoplasm of living Drosophila syncytial embryos; not shown: mNeonGreen (mNG), N-terminal, kept
As to B2, the “stoichiometry N” value was ~2.

The values above are taken from publication PMC9442473, “Centriole growth is limited by the Cdk/Cyclin-dependent phosphorylation of Ana2/STIL” (The Journal of Cell Biology, 2022).
